Experiment: yeast display, Sf9 membrane polyspecificity reagent, FACS + sequencing; frameworks hold sequencing errors
Outline: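 After 36–48 hours of galactose induction, yeast (Saccharomyces cerevisiae BJ5465) displaying a synthetic nanobody library were stained at 4 °C for 1 hour with 10% biotinylated, detergent-solubilized Sf9 membrane reagent. Streptavidin microbeads enriched the stained cells before FACS sorting into low and high (top ~1%) gates on anti-HA and streptavidin fluorescence. Each clone's polyreactivity label reflects its gate of origin.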

Sequence	polyreactivity (PSR sort gate)
QVQLVESGGGLVQAGGSLRLSCAASGSIFASNTMGWYRQAPGKERELVAGITKIGSSTYYADSVKGRFTISRDNAKNTVYLQMNSLKPEDTAVYYGNADYYFSWGSIEDYWGQGTQVSVSS	low polyreactivity
QVQLVESGGGLVQAGGSLRLSCAASGSIFASYAMGWYRQAPGKERELVAAISRSGGSTYYADSVKGRFTISRDNAKNTVYLQMNSLKPEDTAVYYCATGKIREDDYWGQGTQVTVSS	high polyreactivity
QVQLVESGGGLVQAGGSLRLSCAASGSIFATNTMGWYRQSPGKERELVATISSSDSTNYADSVKGRFTISRDNAKNTVYLEMNSLKPVDTAVYYCNKAYVDSTHGSYRWTYDYWGQGTQVTVSS	low polyreactivity
QVQLVESGGGLVQAGGSLRLSCAASGSIFATYAMGWYRQAPGKERELVAAITSSDGSTNYADSVKGRFTISRDNAKNTVDLQMNRLKPEDTAVYYCATDAPDRTDSDSGFDAGYDYWGQGTQVTLSS	low polyreactivity
QVQLVESGGGLVQAGGSLRLSCAASGSIFAVNAMGWYRQAPGKERELVAAITSGGNTYYADSVKGRFTISRDNAKNTVYLQMNSLKPEDTAVYYCATVFSVQGWYFGMNYWGQGTQVTVSS	low polyreactivity
QVQLVESGGGLVQAGGSLRLSCAASGSIFAVYAMGRYRQAPGKERELVASISRTGTTNYADSVKGRFTISRDNAKNTVYLQMNSLKPEDTAVYYCNADAYLYYKYHWGFTFYQYEYWGQGTQVTVSS	low polyreactivity
QVQLVESGGGLVQAGGSLRLSCAASGSIFAVYAMGWYRQAPGKERELVATISGRGGSTYYADSVKVRFTISRDNAKNTVYLQMNSLKPEDTAVYYCNARVLFRRERMDSWGQGTKVTVSS	high polyreactivity
QVQLVESGGGLVQAGGSLRLSCAASGSIFAVYAMGWYRQAPGKERELVAVITRSGGSTYYADSVKGRFTISRDNAKNTVYLQMNSLKPEDTAVYYCAARRSYLLRYDYWGQGTQVTVSS	high polyreactivity
QVQLVESGGGLVQAGGSLRLSCAASGSIFAVYTMGWYRQAPGKEREFVAAITKSGGRTYYADSVKGRFTISRDNAKNTVYLQMNSLNPEDTAFYYCARRRTIPYTLVDYDSWGQGTQVTVSS	low polyreactivity
QVQLVESGGGLVQAGGSLRLSCAASGSIFAWYAMGWYRRAPGKESELVAAITWSGGSTYYADSVKGRFTISRDNAKNTVYLQMNSMKQEDTAVYYCAVEWYYRNNAIISGYYYWGKGTQVTVSS	high polyreactivity
QVQLVESGGGLVQAGGSLRLSCAASGSIFAWYGMGWYRQAPGKERELVAAITSTGSTYYADSVKGRFTISRDNAKKTVYLQMNSLKPEDTAVYYCNAYSVYLWRPGDYWGQGTQVTVSS	low polyreactivity
QVQLVESGGGLVQAGGSLRLSCAASGSIFAWYTMGWYRQAPGKERELVATITRGGSTTYADSVKGRFTISRDNAKITVYLQMNSLKPEDTAVYYCAADWRTKGYDSLGQGTQVTVSS	high polyreactivity
QVQLVESGGGLVQAGGSLRLSCAASGSIFAYNAMGRYRPAPGKERELGAAITSDDSTNYADSVKGRFTISRDNAKNSVYLQMNSLKPEDTAVYYCAAYYYYTYIIGYDYCGQGTQVTVSS	low polyreactivity
QVQLVESGGGLVQAGGSLRLSCAASGSIFAYNAMGWYRQAPGKERELVAAISSGGRTKYADSVKGRFTISRDNAKNTVYLQMNSLKPEDTAVYYCAAESYTGKYSWVWKWYDYWGQGTQVTVSS	low polyreactivity
QVQLVESGGGLVQAGGSLRLSCAASGSIFAYNTMGWYRQAPGKEREFVAAISWRGGSTYYADSVKGRFTISRDNAKNTVYLQMTSLKPEDTAVYYCNARYRNTFYTRRYDYWGQGTQVTVSS	high polyreactivity
QVQLVESGGGLVQAGGSLRLSCAASGSIFAYYALGWYRQAPGKERELVASIDWSGDLYVRDSVKGRFTISRDNAKNTVYFLMNSLKPEDTAVYYCAKDVSFQYGTGYDYWGQGNQVTVSS	low polyreactivity
QVQLVESGGGLVQAGGSLRLSCAASGSIFAYYAMGWYRQAPGKERELVAAIDSGGGTSYADSVKGRFTISRDNAKNTVYLQMNSLNPEDTAVYYCNAAGYVVYYRIIAFGYWGQGTLVTVSS	low polyreactivity
QVQLVESGGGLVQAGGSLRLSCAASGSIFAYYAMGWYRQAPGKERELVAAITSGDSTYYADSVKGRFTISRDNAKNTVYLQMNSLKPEDTAVYYCAADVSWRSNWYDYWGQGTQVTVSS	low polyreactivity
QVQLVESGGGLVQAGGSLRLSCAASGSIFAYYTMGWYRQAPGKEREFVAAISYSGGSTYYADSVKGRFTISRDNAKNTVYLQMNSLKPEDTAVYYCFPGKTRLYGYWGQGTQVTVSS	high polyreactivity
QVQLVESGGGLVQAGGSLRLSCAASGSIFAYYVMGWYRQAPGKERELVAAISRSGGRTYYADSVKGRFTISRDNAKNTVYLQMNSLKPEETAVYYCNSELYSRPPGAQDPRLRFDYWGQGTQVTVSS	high polyreactivity
QVQLVESGGGLVQAGGSLRLSCAASGSIFCYYAMGWYRQAPGKERELVATITSGGSTSYADSVKGRFTISRDNAKNTVYLQMNSLKPEDTAVYYCAAARLFTTYDWGQGTQVTVSS	low polyreactivity
QVQLVESGGGLVQAGGSLRLSCAASGSIFDAYMGWYRQAPGKERELVAGITRSGGSTYYADSVKGRFTISRDNAKNSVYLQMNSLKPEDTAVYYCAADYSSDGDYWGQGTQVTVSS	low polyreactivity

Sequence	polyreactivity (PSR sort gate)
QVQLVESGGGLVQAGGSLRLSCAASGSIFDDYAMGWYRQAPGKERELVAAITSGGSTYYADSVKGRFTISRDNAKKTVYLLMYSLKPEDTAVYFRATRYHWSSSFAPVGAYGYWGQGTQVTVSS	low polyreactivity
QVQLVESGGGLVQAGGSLRLSCAASGSIFDFNAMGWYRQAPGKERELVAAITWGGGSTYYADSVKGRFTISRDNAKNTVYLQMNSLKPEDTAVYYCNAAYGRYRYDYWGQGTQVTVSS	low polyreactivity
QVQLVESGGGLVQAGGSLRLSCAASGSIFDFYAMGRYRQAPGKERELVAAISYSGSSTYYADSVKGRFTISRDNAKNTVYLQMNSLKPEDTAVDYCATDYPGGYVYYSRFDYWGQGTQVTVSS	low polyreactivity
QVQLVESGGGLVQAGGSLRLSCAASGSIFDFYAMGWYRQAPGKERELVAAINSGGRTYADSVKGRFTISRDNAKNTVYLQMNSLKPEDTAVYYCAAEYQYLSVEVTDIWYLTKYDYWGQGTQVTVSS	low polyreactivity
QVQLVESGGGLVQAGGSLRLSCAASGSIFDFYAMGWYRQAPGKERELVATITASGGSTYYADSVKGRFTISRDNAKNTVYLQMNSLKPEDTAVSYCNADSVYWGQGTQVTVSS	low polyreactivity
QVQLVESGGGLVQAGGSLRLSCAASGSIFDGYAMGGSRQAPGNERELLAAISSGTSTNYADSVKGRFTISRDNAKNTVYLQMNSLKPEDTAVYYCNAYPPYLYATYDYWGQGTQVTVSS	low polyreactivity
QVQLVESGGGLVQAGGSLRLSCAASGSIFDGYAMGWYRQAPGKEREFVAAITKRTGRTYYADSVKGRFTISRDNAKNTVYLQMNSLKPEDTAVYYCAAAIPRFSAGHYDYCGQGTQVTVSS	high polyreactivity
QVQLVESGGGLVQAGGSLRLSCAASGSIFDGYAMGWYRQAPGKEREFVASIRFSTGRTYYADSVKGRFTISRDNAKNSVYLQMNSLKPEDTAGYYCNAPQGFVWRYSSWGPYDYWGQGTQVTVSS	high polyreactivity
QVQLVESGGGLVQAGGSLRLSCAASGSIFDHNAMGWYRQAPGKEREFVARITSSGGGTYYADSVKGRFTISRDNAKNTVYLQMNSLKPEDTAVYYCAKTYYRQGARYPTLFYYWGQGTQVTVSS	low polyreactivity
QVQLVESGGGLVQAGGSLRLSCAASGSIFDKNAMGWYRQAPGKERELVAAISRSGGRTYYADSVKGRFTISRDNAKNTVYLQMNSLKPEDTAVYYCNAVYYYRPYWRQSTLSQYGYWGQGTQVTVSS	high polyreactivity
QVQLVESGGGLVQAGGSLRLSCAASGSIFDLNAMGWYRQAPGKERELVAAISKSGGSTYYADSVKGRFTISRDNAKNTVYLQMNSLKPEDTAVYYCAKDRKYHLSGGYDYWGQGSQVTVSS	low polyreactivity
QVQLVESGGGLVQAGGSLRLSCAASGSIFDLNAMGWYRQAPGKERELVAAISSGGGTYYADSVKGRFTISRDNAKNTVYLKMNSLKPEDTAVYYCKRVTRWTYNYWGQGTQVSVSS	high polyreactivity
QVQLVESGGGLVQAGGSLRLSCAASGSIFDLNAMGWYRQAPGKERELVAAISSVGGTYYADSVKGRFTISRDNAKNTGYLQMNSLKPEDTAVYYCNRVTRWTYNYWGQGTQVTVSS	high polyreactivity
QVQLVESGGGLVQAGGSLRLSCAASGSIFDLYAMGWYRQAPGKERELVAGISYSGGSTYYADSVKGRFTISRDNAKNTVYLQMNSLKPEDTAVYYCAADDSYWYDNYIDEAAANTFDYWGQGTQVTVSS	low polyreactivity
QVQLVESGGGLVQAGGSLRLSCAASGSIFDNYAMGWYRQAPGKERELVAAINFSDGDTYYADSVKGRFTISRDNAKNTVYLQMNSLKPEDTAVYYCAAEVWYPPEYYDEYDYWGQGTQVTVSS	low polyreactivity
QVQLVESGGGLVQAGGSLRLSCAASGSIFDPYAMGGYRQAPGKERELVAAISFITGGTYYADSVMGRFTISRDNAMNTVYLQMNSLKPEDTAVYYCNADYFYKGGWVWRDEYWGQGTQVTVSS	high polyreactivity
QVQLVESGGGLVQAGGSLRLSCAASGSIFDPYAMGWYRQAPGKEREFVAAISWSGGSTYYADSVKGRFTISRDNAKNTVYLQMNSLIPEDTAVYYCAAGTQWYSQVYIYYYWGQGTQVTVSS	low polyreactivity
QVQLVESGGGLVQAGGSLRLSCAASGSIFDPYAMGWYRQAPGKERELVAAITASASSTYYADSVKGRFTISRDNAKNTVYLQMYSLKPEDTAVYYCAADRANWEYLLSLLGYDYWGQGTQVTVSS	low polyreactivity
QVQLVESGGGLVQAGGSLRLSCAASGSIFDRNAMGWYRQAPGKERELVAAISVSGGSTYYADSVKGRFTISRDNAKNTVYLQMNSLKPEDTAVYYCAKAGRYANLPYGYWGQGTQVTVSS	high polyreactivity
QVQLVESGGGLVQAGGSLRLSCAASGSIFDRNAMGWYRQAPGKERELVASISYSGGTTYADSVKGRFTISRDNAKNTVYLQMNSLKPEDTAVYYCNAGGVYPRFTFLEQGYEMDYWGQGTQVTVSS	low polyreactivity
QVQLVESGGGLVQAGGSLRLSCAASGSIFDRYAMGWYRKAPGKERELVASITYSGGSTYYADSVKGRFTISRDNAKNTVYLQMKSLKPEDTAVYYCAKVIRLVGDYDYWGQGTQVTVSS	low polyreactivity
